These are literature values, as cited in paper PMC5755571.

For this series, the target named is His64 (UniProt position 64, ILNNGHAFNVE).

Turning to “Carbonic anhydrase II (hCAII) (Homo sapiens)”, the pKa entry was “around 7”.
